Target: T1, Valosin-Containing Protein phosphorylated at Ser784 (pSer^784-VCP), endogenous, from genotoxin-treated human … (human, UniProt P55072 2-806, phosphoserine at 784)
T1 construct: Endogenous protein in lysates or fixed cells (HeLa, MDA-MB-231, U2OS and others) after SN38, etoposide or HU; it is tied to the assayed protein only through that definition; also called DNA-damage-induced ~100-kDa protein
Assay: co-IP, western blot (FIG. 15B, 14B)
Description: Antibody-bound proteins were analyzed by Western blot for K48-ubiquitin, total VCP and pSer784-VCP. Same amount of control IgG was used to bind the etoposide-treated HeLa samples to control for non-specific binding. […] Samples were analyzed by Western blot for K48-ubiquitin, NPL4, and UFD1. Total VCP bound by the antibodies were visualized by silver staining. […] YFP-FLAG was expressed as a control.
Ser784 Phosphorylation Decreases VCP Association with NPL4/UFD1 and Polyubiquitinated Proteins: To study the regulatory mechanism of Ser784 phosphorylation, the effects on the VCP interaction with protein substrates were first examined. Total VCP (by a pan-VCP antibody) or pSer784-VCP (by 3E4) from etoposide or HU-treated HeLa cell lysates were immunoprecipitated and immunoblotted for co-absorbed K48-polyubiquitinated proteins. […] To better separate pSer784-VCP from unphosphorylated VCP, sequential pull-downs were performed from etoposide-treated HeLa cell lysates to first deplete pSer784-VCP using 3E4 and subsequently capture the remaining unphosphorylated VCP by the pan-antibody. […] Based on the levels of VCP in the input and supernatants after each pull-down, it is evident that Ser784 is phosphorylated at high stoichiometry in response to DNA damage (>50% of total VCP after overnight etoposide treatment) (FIG. 15A).

T1 sequence (P55072 2-806 limits assumed): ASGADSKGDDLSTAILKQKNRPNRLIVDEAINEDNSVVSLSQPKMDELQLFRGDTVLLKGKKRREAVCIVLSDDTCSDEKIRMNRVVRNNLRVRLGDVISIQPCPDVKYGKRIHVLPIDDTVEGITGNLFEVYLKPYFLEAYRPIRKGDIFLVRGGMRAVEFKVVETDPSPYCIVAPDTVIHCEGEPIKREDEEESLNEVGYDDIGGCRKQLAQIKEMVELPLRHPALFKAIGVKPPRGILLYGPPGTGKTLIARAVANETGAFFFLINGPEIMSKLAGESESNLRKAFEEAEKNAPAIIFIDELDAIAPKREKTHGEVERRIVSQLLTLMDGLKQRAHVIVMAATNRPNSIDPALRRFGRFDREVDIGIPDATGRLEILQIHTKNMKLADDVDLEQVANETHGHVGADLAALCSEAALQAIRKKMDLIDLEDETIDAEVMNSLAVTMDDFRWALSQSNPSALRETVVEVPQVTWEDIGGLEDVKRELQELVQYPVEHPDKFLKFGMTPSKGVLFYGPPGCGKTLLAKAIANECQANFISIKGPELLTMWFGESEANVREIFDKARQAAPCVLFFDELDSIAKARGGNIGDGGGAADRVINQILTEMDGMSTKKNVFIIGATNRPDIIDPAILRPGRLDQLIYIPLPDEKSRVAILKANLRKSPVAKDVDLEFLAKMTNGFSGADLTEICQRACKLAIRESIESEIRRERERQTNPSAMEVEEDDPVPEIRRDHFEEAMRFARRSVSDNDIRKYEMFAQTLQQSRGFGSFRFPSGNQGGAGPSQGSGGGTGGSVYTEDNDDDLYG

B1: NPL4 (other, UniProt Q8TAT6 2-608, looked up)
chain: AESIIIRVQSPDGVKRITATKRETAATFLKKVAKEFGFQNNGFSVYINRNKTGEITASSNKSLNLLKIKHGDLLFLFPSSLAGPSSEMETSVPPGFKVFGAPNVVEDEIDQYLSKQDGKIYRSRDPQLCRHGPLGKCVHCVPLEPFDEDYLNHLEPPVKHMSFHAYIRKLTGGADKGKFVALENISCKIKSGCEGHLPWPNGICTKCQPSAITLNRQKYRHVDNIMFENHTVADRFLDFWRKTGNQHFGYLYGRYTEHKDIPLGIRAEVAAIYEPPQIGTQNSLELLEDPKAEVVDEIAAKLGLRKVGWIFTDLVSEDTRKGTVRYSRNKDTYFLSSEECITAGDFQNKHPNMCRLSPDGHFGSKFVTAVATGGPDNQVHFEGYQVSNQCMALVRDECLLPCKDAPELGYAKESSSEQYVPDVFYKDVDKFGNEITQLARPLPVEYLIIDITTTFPKDPVYTFSISQNPFPIENRDVLGETQDFHSLATYLSQNTSSVFLDTISDFHLLLFLVTNEVMPLQDSISLLLEAVRTRNEELAQTWKRSEQWATIEQLCSTVGGQLPGLHEYGAVGGSTHTATAAMWACQHCTFMNQPGTGHCEMCSLPRT
notes: Detected by western blot in VCP co-immunoprecipitates; also called cofactor NPL4
- binding result: binds
